Target: uncleaved full-length membrane-anchored HIV-1_(JR-FL) Env(-) glycoprotein (HIV-1 (JR-FL))
Assay: cryo-EM structure

Substance: uncleaved full-length membrane-anchored HIV-1_(JR-FL) Env(-) glycoprotein (natural protein)
- stoichiometry N: 3

— article doi:10.1101/288472
